The labels stand for the following.
B1: LINE1-full (parent)
chain: UACGUAGGUGGUUUUCCCCUGAUAGUGCUAAGGGGGCCUGGAAGUUUGGACUGGGCAGAGCUCAACACAGCGUGGCAAAGUGGCUGUGGCUAGACUGCCUCUCUGGAUUCCUCGUCACUCAGCAGGGCAUCUCUGAGAGAAAUGCC

Consider 167 variants from the RNAGym collection of RNA variant scans (doi:10.7554/elife.90254).

Variants of B1 are the subject of the data set. Briefly: self-cleavage, relative activity (ratio to wild type); higher = more cleavage; in vitro, sequencing; the parent is a self-cleaving ribozyme.
Consider U14C U29C, for which the self-cleavage came out at 1.4.

Regarding U14C A64U, the self-cleavage is 0.46. Then U14C G58U, with 0.03; and U14C G58A, with 0.06; and U14C G58C, with 0.08. The figure for U13G C76U is 1.47; for U13C C17U it is 1.19.

Consider U13C C51U, for which the self-cleavage stood at 0.97. Regarding U14C G88A, the self-cleavage turned out to be 0.09. Then U13C U73G, with 0.91; and U13C U73A, with 1.39. Consider U13C U73C, for which the self-cleavage amounted to 1.17. Then U13A U108C, with 1.02; and U13C C128U, with 0.78. Then U13C C128A, with 0.79; and U14A U73A, with 1.39; and U13C G41A, with 1.81. Then U13A G82U, with 0.65. As to U14A G72U, the self-cleavage worked out at 1.32.

For U13C G97A, the self-cleavage worked out at 0.08.

Regarding U14C C110A, the self-cleavage is 1.33. The figure for U14C C110U is 1.39; for U14C A117G it is 1.22; for U13C A78U it is 1.81. The figure for U13C A78G is 0.99; for U14C G48A it is 1.12. Then U14C G32C, with 1.58. As for U14C G32U, the self-cleavage worked out at 1.03. The figure for U14C U39G is 0.36; for U13C U134G it is 1.04. Then U13C U134A, with 1.03; and U13C C116A, with 1.15; and U13C C116U, with 0.7.

On to U13C G40U, for which the self-cleavage was found to be 1.87. U13C G40A: the self-cleavage worked out at 0.91.

Turning to U13C A129C, the self-cleavage turned out to be 1.33. Then U13A U73A, with 1.04; and U13A U73C, with 0.94. Then U14C U46C, with 1.3; and U14C U46A, with 1.4. Then U13C C131A, with 1.28.

With U13C A67G, the self-cleavage amounted to 0.71.

Turning to U13C U62C, the self-cleavage was found to be 0.09. The figure for U13C U62A is 0.12; for U13C U62G it is 0; for U14A U87C it is 0.12. Then U13C U15C, with 1.03; and U13G C113U, with 1.11. On to U13C U132C, for which the self-cleavage turned out to be 1.2. The figure for U13C U132A is 1.3. The figure for U13G A94G is 0.37.

As for U14A U102A, the self-cleavage came to 0.99. Then U14A C101A, with 1.42.

For U13C A121C, the self-cleavage came out at 1.34. Then U13C A121U, with 1.26. The figure for U13C A121G is 1.52.

In the case of U13G U39C, the self-cleavage was 0.7.

As to U14C C128U, the self-cleavage was 0.2. U13C G54A: the self-cleavage was 0.62. The figure for U13C G54U is 0.6; for U14C G83A it is 1.07.

On to U13C A94G, for which the self-cleavage stood at 0.33. The figure for U13A U20A is 1.15. U13C A24U: the self-cleavage was 1.11.

Turning to U13A C145U, the self-cleavage was 1.26. Then U14C C123U, with 1.05.

As to U14A U47C, the self-cleavage was 1.14.

Consider U13C A142U, for which the self-cleavage was found to be 1.09. The figure for U13C G80A is 1.48; for U13A U23C it is 1.62. The figure for U14C C51G is 1.84. Then U14C C51U, with 0.71. With U13C A30G, the self-cleavage was 0.77.

On to U13A U26A, for which the self-cleavage stood at 0.78. For U13A U26C, the self-cleavage is 1.19. The figure for U14C A129U is 1.35.

With U14C G127U, the self-cleavage amounted to 1.73. The figure for U14C G127A is 1; for U13G U47C it is 1.17. Then U14C A77C, with 2.68.

With U14C A77G, the self-cleavage stood at 1.73. Turning to U14C G41U, the self-cleavage was found to be 0.71. Then U13A G83A, with 0.58. Take U13A C111U: the self-cleavage was found to be 0.89. For U13C G139U, the self-cleavage was 1.19. Then U14C C16A, with 0.84; and U13C U130A, with 1.6; and U13C U130C, with 1.2. As for U13C U52G, the self-cleavage amounted to 1.3. Then U13C A69U, with 0.1; and U14C C113A, with 1.19; and U14C C113U, with 0.82. Then U14A A78G, with 0.34; and U13C G72A, with 1.22; and U14A U143C, with 1. As to U13C U47C, the self-cleavage was found to be 1.56.

Consider U14A, for which the self-cleavage is 1.01. Then U14C, with 1.15. Take U13G U104A: the self-cleavage was 1.39. The figure for U14C C76U is 1.23; for U13C A138C it is 1.13. For U13C A138U, the self-cleavage was 1.31. The figure for U14A U26A is 0.79; for U14A A141G it is 1; for U13C U102C it is 1.4.

Take U13C U102A: the self-cleavage amounted to 1.73. The figure for U14A U62A is 0.05; for U13C U46G it is 1.31; for U13C U46A it is 1.13.

In the case of U14A A77G, the self-cleavage stood at 1.39.

In the case of U13A U134C, the self-cleavage is 0.85. For the variant U14C A59U, the self-cleavage was 0.88.

Regarding U14A A24G, the self-cleavage amounted to 0.96. On to U14A A24U, for which the self-cleavage turned out to be 0.77. As for U13A U47G, the self-cleavage was found to be 0.38.

As to U13A U47A, the self-cleavage amounted to 1.01. Then U14C G54A, with 0.71; and U14C A121C, with 1.13. Take U14C A121U: the self-cleavage was found to be 1.25. The figure for U14C A121G is 1.3; for U13C G105A it is 1.33. The figure for U14A A142G is 0.85; for U13C C71U it is 0.58; for U13C C71A it is 0.24. The figure for U14A A140U is 1.43. For the variant U14A A140G, the self-cleavage worked out at 0.91. The figure for U14A U39C is 0.95; for U14A U39A it is 0.8. The figure for U13A U130C is 1.22; for U14A A50G it is 1.25. The figure for U13C G75A is 1.16.

Turning to U13A U143A, the self-cleavage amounted to 0.84. Then U13A U143G, with 1.01; and U13C C110U, with 1.43.

Regarding U13A U109C, the self-cleavage stood at 1.17. Then U13C G126U, with 1.2.

As to U14C G25U, the self-cleavage was determined as 1.26. Then U14C G25C, with 0.5. In the case of U14A U23C, the self-cleavage amounted to 1.44. The figure for U13C A50U is 0.83; for U14A U134A it is 0.81.

As to U14A G70A, the self-cleavage amounted to 0.19.

On to U13C G144A, for which the self-cleavage stood at 1.91. Take U14A U119A: the self-cleavage amounted to 1.02. The figure for U13C A136G is 1.25; for U13C A136U it is 1.18.

U13A U81A: the self-cleavage was determined as 1.81. Then U13A U81C, with 0.85. The figure for U13C U119C is 1.54; for U13C C18U it is 1.57; for U14C A79U it is 1.97. As for U13C G89A, the self-cleavage is 0.04. Then U14A G114A, with 0.83.

With U14C G86U, the self-cleavage was 0.08. Then U13C C66U, with 0.14; and U13C C120U, with 1.05; and U14C C145A, with 1.28.

For the variant U14C C145U, the self-cleavage stood at 1.41. Then U14C C145G, with 0.63. In the case of U13C A59G, the self-cleavage came to 0.13.

Regarding U13C A59U, the self-cleavage was determined as 0.86.

Turning to U13C A117G, the self-cleavage stood at 1.02. Then U13C A117U, with 1.07. Then U14C C146U, with 1.32; and U13C G33U, with 1.64; and U13C A107C, with 0.94. Then U13C A107G, with 1.39.
